Results published in article PMC7111323 (Cell, 2016).
Read-outs that look alike come from different tables or passages of the source.

T1: full-length human NPC1 (Niemann-Pick C1) (human, UniProt O15118 23-1278)
T1 sequence: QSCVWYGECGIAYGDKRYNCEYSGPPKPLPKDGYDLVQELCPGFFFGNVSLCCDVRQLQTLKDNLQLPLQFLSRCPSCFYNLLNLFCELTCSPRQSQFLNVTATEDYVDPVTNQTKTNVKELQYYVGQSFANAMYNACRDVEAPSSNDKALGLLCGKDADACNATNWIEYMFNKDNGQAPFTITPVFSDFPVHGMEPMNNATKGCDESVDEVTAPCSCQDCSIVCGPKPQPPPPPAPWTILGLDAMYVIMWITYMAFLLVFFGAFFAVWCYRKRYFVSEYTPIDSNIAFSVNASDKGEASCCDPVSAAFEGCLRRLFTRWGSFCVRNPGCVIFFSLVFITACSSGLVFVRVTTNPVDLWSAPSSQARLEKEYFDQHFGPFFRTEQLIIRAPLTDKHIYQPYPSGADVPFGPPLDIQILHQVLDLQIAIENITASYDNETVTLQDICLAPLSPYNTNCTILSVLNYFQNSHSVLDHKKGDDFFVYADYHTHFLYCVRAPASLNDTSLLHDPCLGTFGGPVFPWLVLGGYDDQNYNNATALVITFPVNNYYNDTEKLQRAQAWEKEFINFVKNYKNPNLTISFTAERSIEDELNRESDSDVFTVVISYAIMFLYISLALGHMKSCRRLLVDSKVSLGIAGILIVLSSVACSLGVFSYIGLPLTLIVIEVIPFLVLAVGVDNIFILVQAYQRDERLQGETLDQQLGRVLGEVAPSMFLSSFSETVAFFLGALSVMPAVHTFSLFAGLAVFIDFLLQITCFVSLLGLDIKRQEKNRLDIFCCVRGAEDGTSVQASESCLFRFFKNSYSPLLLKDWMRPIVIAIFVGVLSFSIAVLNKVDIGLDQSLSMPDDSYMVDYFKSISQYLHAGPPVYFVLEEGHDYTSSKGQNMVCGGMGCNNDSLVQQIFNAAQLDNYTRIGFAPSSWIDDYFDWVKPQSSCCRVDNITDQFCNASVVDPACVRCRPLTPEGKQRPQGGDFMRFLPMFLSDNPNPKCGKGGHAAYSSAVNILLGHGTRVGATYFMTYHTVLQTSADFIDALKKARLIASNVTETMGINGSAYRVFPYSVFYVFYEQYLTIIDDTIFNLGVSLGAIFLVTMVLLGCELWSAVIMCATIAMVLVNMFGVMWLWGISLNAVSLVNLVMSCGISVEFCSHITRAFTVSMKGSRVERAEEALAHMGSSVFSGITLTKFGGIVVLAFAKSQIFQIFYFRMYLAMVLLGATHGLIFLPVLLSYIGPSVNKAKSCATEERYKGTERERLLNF

B1: human NPC2 (natural protein)
chain: EPVQFKDCGSVDGVIKEVNVSPCPTQPCQLSKGQSYSVNVTFTSNIQSKSSKAVVHGILMGVPVPFPIPEPDGCKSGINCPIQKDKTYSYLNKLPVKSEYPSIKLVVEWQLQDDKNQSLFCWEIPVQIVSHL

How the values were obtained:
Assay in all cases: ITC
[1] = biological target: T1, full-length human NPC1 (Niemann-Pick C1)
[2] = biological target: T1, full-length human NPC1 (Niemann-Pick C1); remark: listed apart in the source
[3] = biological target: B1

| Binder | Kd [1] | Kd [2] | Kd [3] |
| --- | --- | --- | --- |
| B1 | 217 ± 35.3 µM | 15.8 ± 1.2 µM |  |
| human NPC1 ΔLinker (full length with internal deletion of the Pro-rich segment 249…257) (natural protein) QSCVWYGECGIAYGDKRYNCEYSGPPKPLPKDGYDLVQELCPGFFFGNVSLCCDVRQLQTLKDNLQLPLQFLSRCPSCFYNLLNLFCELTCSPRQSQFLNVTATEDYVDPVTNQTKTNVKELQYYVGQSFANAMYNACRDVEAPSSNDKALGLLCGKDADACNATNWIEYMFNKDNGQAPFTITPVFSDFPVHGMEPMNNATKGCDESVDEVTAPCSCQDCSIVCGAPWTILGLDAMYVIMWITYMAFLLVFFGAFFAVWCYRKRYFVSEYTPIDSNIAFSVNASDKGEASCCDPVSAAFEGCLRRLFTRWGSFCVRNPGCVIFFSLVFITACSSGLVFVRVTTNPVDLWSAPSSQARLEKEYFDQHFGPFFRTEQLIIRAPLTDKHIYQPYPSGADVPFGPPLDIQILHQVLDLQIAIENITASYDNETVTLQDICLAPLSPYNTNCTILSVLNYFQNSHSVLDHKKGDDFFVYADYHTHFLYCVRAPASLNDTSLLHDPCLGTFGGPVFPWLVLGGYDDQNYNNATALVITFPVNNYYNDTEKLQRAQAWEKEFINFVKNYKNPNLTISFTAERSIEDELNRESDSDVFTVVISYAIMFLYISLALGHMKSCRRLLVDSKVSLGIAGILIVLSSVACSLGVFSYIGLPLTLIVIEVIPFLVLAVGVDNIFILVQAYQRDERLQGETLDQQLGRVLGEVAPSMFLSSFSETVAFFLGALSVMPAVHTFSLFAGLAVFIDFLLQITCFVSLLGLDIKRQEKNRLDIFCCVRGAEDGTSVQASESCLFRFFKNSYSPLLLKDWMRPIVIAIFVGVLSFSIAVLNKVDIGLDQSLSMPDDSYMVDYFKSISQYLHAGPPVYFVLEEGHDYTSSKGQNMVCGGMGCNNDSLVQQIFNAAQLDNYTRIGFAPSSWIDDYFDWVKPQSSCCRVDNITDQFCNASVVDPACVRCRPLTPEGKQRPQGGDFMRFLPMFLSDNPNPKCGKGGHAAYSSAVNILLGHGTRVGATYFMTYHTVLQTSADFIDALKKARLIASNVTETMGINGSAYRVFPYSVFYVFYEQYLTIIDDTIFNLGVSLGAIFLVTMVLLGCELWSAVIMCATIAMVLVNMFGVMWLWGISLNAVSLVNLVMSCGISVEFCSHITRAFTVSMKGSRVERAEEALAHMGSSVFSGITLTKFGGIVVLAFAKSQIFQIFYFRMYLAMVLLGATHGLIFLPVLLSYIGPSVNKAKSCATEERYKGTERERLLNF |  |  | 266 ± 25.5 µM |
